One molecule from patent US20230045873A1 (ONCOONE RESEARCH AND DEVELOPMENT, published 2023) can be followed below.

The target in the assay is T1, oxMIF (recombinant human MIF immobilized into microwell plates, transforming MIF to oxMIF) (human, UniProt P14174 2-115).
T1 construct: also called immobilized MIF (oxMIF); immobilized oxMIF
Put plainly: ELISA on immobilized MIF (oxMIF), protein L-HRP detection, mean of triplicate. How it is done: Recombinant human MIF (1 μg/ml) diluted in PBS was immobilized into microwell plates (transforming MIF to oxMIF according to Thiele M. et al., 2015, J Immunol 2015; 195:2343-2352). After blocking, the bispecific antibodies were added to the plates at different concentrations. Bound bispecific antibodies were detected using protein L-HRP conjugate. Plates were developed by adding 3 3′5 5′tetramethylbenzidine (TMB) and chromogenic reaction was stopped with […]. OD was measured at 450 nm.
The binding curves of anti-oxMIF/CD3 bispecific antibodies C0061 and C0062 binding towards immobilized MIF (oxMIF) in an ELISA are depicted in FIG. 4. The monospecific anti-oxMIF antibody C0008 was used as positive control for oxMIF binding. EC50 values of the binding curves, which reflect rough KD estimates, were calculated by 4-parameter fit.
For orientation: ELISA stands for enzyme-linked immunosorbent assay.

T1 sequence (P14174 2-115 limits assumed): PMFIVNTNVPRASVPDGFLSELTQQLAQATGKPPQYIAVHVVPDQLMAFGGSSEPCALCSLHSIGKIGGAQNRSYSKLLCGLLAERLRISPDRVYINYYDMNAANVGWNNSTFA

B1: C0061 (Anti-oxMIF Fab and anti-oxMIF/anti-CD3 BiTE fused to Fc; Fab-BiTE-Fc) (bispecific antibody, human IgG1, kappa)
heavy: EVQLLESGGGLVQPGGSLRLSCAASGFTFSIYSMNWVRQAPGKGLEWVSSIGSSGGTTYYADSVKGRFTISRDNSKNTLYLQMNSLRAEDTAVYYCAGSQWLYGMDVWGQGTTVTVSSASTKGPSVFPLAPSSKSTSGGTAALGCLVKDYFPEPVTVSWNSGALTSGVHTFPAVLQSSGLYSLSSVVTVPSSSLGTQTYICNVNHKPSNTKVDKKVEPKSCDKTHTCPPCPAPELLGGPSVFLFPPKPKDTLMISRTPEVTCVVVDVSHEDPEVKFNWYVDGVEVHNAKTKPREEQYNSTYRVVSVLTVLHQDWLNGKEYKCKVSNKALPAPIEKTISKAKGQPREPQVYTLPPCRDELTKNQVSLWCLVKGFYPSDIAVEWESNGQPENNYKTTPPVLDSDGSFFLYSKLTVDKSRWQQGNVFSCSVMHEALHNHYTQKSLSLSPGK
chain: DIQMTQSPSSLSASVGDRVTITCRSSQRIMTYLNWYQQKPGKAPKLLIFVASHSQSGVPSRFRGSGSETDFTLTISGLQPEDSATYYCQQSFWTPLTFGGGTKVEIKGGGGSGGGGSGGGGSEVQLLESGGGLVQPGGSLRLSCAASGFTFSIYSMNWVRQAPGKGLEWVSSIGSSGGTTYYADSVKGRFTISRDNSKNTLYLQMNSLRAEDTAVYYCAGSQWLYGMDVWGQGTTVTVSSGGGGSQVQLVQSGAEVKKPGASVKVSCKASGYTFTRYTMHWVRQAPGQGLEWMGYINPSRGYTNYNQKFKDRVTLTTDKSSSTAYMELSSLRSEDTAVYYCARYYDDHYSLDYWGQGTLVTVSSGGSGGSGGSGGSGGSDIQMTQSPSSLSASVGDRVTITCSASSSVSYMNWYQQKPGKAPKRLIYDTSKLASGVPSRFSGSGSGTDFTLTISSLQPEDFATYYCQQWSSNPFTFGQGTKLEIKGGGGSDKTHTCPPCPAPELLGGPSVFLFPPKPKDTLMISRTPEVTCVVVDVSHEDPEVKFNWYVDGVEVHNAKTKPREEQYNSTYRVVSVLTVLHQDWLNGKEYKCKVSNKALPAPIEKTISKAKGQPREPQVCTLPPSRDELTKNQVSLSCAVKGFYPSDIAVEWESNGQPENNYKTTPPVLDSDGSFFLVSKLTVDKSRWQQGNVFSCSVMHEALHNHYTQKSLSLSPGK
light: DIQMTQSPSSLSASVGDRVTITCRSSQRIMTYLNWYQQKPGKAPKLLIFVASHSQSGVPSRFRGSGSETDFTLTISGLQPEDSATYYCQQSFWTPLTFGGGTKVEIKRTVAAPSVFIFPPSDEQLKSGTASVVCLLNNFYPREAKVQWKVDNALQSGNSQESVTEQDSKDSTYSLSSTLTLSKADYEKHKVYACEVTHQGLSSPVTKSFNRGEC
notes: Three polypeptides; bivalent for oxMIF, monovalent for CD3
In the case of B1, the EC50 (usually the midpoint of the concentration-response curve) came out at 0.9 nM.
